In paper PMC6488228 (Nature microbiology, 2018):

B1: EagT6 (from pRSFDuet-1::vgrG1::eagT6) (natural protein)
chain: MTLYRLHEADLEIPDAWQDQSINIFKLPASGPAREASFVISRDASQGDAPFADYVARQLENAEKQLPGFKLHKRWDINIHGHAAVLLDYQWQREGRDLMLRQVFIERRPAVLITTLTTTPADLPHHEPAWKQAMQTLVPRPTPS

Legend:
[1] = target: VgrG1 (from pRSFDuet-1::vgrG1::eagT6) (Pseudomonas aeruginosa); assay: cryo-EM structure
[2] = target: Tse6 (full-length, C-terminal His8 tag) (Pseudomonas aeruginosa, UniProt Q9I739 1-430); assay: cryo-EM structure
Tse6 (full-length, C-terminal His8 tag), sequence (Q9I739 whole entry): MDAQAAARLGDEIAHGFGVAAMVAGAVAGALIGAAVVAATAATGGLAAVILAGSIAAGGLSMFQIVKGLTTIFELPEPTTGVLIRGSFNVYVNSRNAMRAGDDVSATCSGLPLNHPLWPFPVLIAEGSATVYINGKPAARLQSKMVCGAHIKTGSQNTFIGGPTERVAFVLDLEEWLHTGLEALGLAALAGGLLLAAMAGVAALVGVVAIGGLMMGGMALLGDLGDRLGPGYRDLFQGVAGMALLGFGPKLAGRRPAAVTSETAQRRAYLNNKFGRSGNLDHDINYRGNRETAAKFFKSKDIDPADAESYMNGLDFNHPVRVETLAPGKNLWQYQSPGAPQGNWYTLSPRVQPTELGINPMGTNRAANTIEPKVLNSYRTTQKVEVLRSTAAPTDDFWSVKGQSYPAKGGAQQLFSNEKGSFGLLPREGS

Molecule	stoichiometry N [1]	binding result [2]
VgrG1 (from pRSFDuet-1::vgrG1::eagT6) (natural protein)	3	
B1		binds
